Reference: US20100298541A1 (published 2010)

Target: T1, TRAIL-R2/Fc fusion protein (R & D Systems) (UniProt O14763 54-182, limits assumed)
T1 construct: not shown: Fc part of the bought fusion; captured with anti-human IgG Fc antibody
Experiment: biosensor, TRAIL-R2-Fc fusion protein immobilized; mono-, bi- and tetravalent D1 constructs injected
Description: FIG. 19. Binding affinity of Tn3 monomers and multimers. Depicted in this panel are sensorgrams from a Biosensor binding experiment using mono-, bi- and tetravalent 1C12 and D1 Tn3 constructs. TRAIL-R2-Fc fusion protein was immobilized on a sensor chip while sample proteins were injected over the chip. “tetra” refers to the tetravalent Cκ/IGHG1 fusion constructs.
A qualitative comparison of binding by monomeric 1C12, 1C12-Fc and 1C12-Cκ/1C12-IGHG1 proteins was performed by injecting samples of each of these proteins over a TRAIL-R2 chip on an Attana biosensor instrument.

T1 sequence (O14763 54-182 limits assumed): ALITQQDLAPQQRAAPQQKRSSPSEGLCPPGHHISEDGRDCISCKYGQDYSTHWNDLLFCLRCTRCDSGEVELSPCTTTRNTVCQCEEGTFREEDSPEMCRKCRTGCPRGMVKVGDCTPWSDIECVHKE

B1: D1 (designed binder)
chain: IEVKDVTDTTALITWSPGERIWMFTGCELTYGIKDVPGDRTTIDLTEDENQYSIGNLKPDTEYEVSLICPNYERISNPAKETFTT
binding result: no binding
